“Also recorded” adds a separate entry of the source. Blank lines part the entries; values can stand above or below the molecule they belong to.
Columns and labels:
[1] = biological target: T1, Hybrid LAMP1 / glycan-deleted LAMP1 transmembrane proteins (Mus musculus, UniProt P11438, E181G/G176S/K100R/K180R/L93T/N177S/S175N/T102A/Y92H); experiment: Binding onto membrane-anchored hybrid or mutated LAMP1 proteins (293-F cells) by flow cytometry; parameters: species or system human/mouse; conditions: pXL6041 mLAMP1_hseq6-11_ΔGYQTI
T1 construct: expressed in transfected cells; host or cells: 293-F (HEK293-derived), transient transfection
T1 sequence (P11438 with tags, fused parts or gaps Y92H/L93T/K100R/T102A/S175N/G176S/N177S/K180R/E181G): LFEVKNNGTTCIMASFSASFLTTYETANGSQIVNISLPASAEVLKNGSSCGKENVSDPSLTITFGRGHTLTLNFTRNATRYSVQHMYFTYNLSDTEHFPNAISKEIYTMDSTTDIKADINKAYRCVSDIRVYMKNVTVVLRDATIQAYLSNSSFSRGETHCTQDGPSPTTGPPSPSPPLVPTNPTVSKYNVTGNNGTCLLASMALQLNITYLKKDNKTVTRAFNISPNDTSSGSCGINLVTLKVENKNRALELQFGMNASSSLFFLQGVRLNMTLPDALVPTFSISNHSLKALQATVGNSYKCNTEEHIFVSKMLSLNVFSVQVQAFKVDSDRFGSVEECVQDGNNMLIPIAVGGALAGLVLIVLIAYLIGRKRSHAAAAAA
Procedure: (§1) Different LAMP1 proteins were expressed at the cell membrane of HEK293 cells after transient expression from mammalian plasmids encoding the entire coding sequence of LAMP1 deleted of the intracellular lysosome-targeting motif GYQTI and substituted by a 5-Ala repeat sequence.
(§2) Two days post transfection cells were processed, analyzed by flow cytometry (Guava® easyCyte™ 8HT) as mentioned in example 4.7, and the mean fluorescence was recorded. This fluorescence represents a semi-quantitative assessment of binding.

[2] = biological target: T2, Hybrid LAMP1 / glycan-deleted LAMP1 transmembrane proteins (Homo sapiens, UniProt P11279, A49S/D55E/N45S/N53T/S51L/V52T); experiment: as above; parameters: species or system human/mouse; conditions: pXL6013 LAMP1_mseq2_ΔGYQTI; Table 18
T2 construct: expressed in transfected cells; host or cells: 293-F (HEK293-derived), transient transfection
T2 sequence (P11279 with tags, fused parts or gaps N45S/A49S/S51L/V52T/N53T/D55E): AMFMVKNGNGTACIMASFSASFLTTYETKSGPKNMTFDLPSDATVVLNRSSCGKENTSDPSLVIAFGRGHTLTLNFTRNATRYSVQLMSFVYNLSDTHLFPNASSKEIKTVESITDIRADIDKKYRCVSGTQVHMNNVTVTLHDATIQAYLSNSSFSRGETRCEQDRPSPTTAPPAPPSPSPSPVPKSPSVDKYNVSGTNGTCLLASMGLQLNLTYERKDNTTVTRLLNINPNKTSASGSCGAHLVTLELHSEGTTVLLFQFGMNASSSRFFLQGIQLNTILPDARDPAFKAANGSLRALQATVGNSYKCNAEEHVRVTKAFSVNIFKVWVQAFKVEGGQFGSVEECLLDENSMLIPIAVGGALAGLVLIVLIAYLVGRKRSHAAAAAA
Procedure: as §1, §2

[3] = system: Colon Colo205 tumoral cells expressing LAMP1; experiment: Internalization score by ImageStream multispectral imaging flow cytometer; type: cell-based, human; conditions: Colo205, 10 μg/ml AlexaFluor488-labeled antibody
Text: The internalization score (IS) is defined as a ratio of the fluorescence intensity inside the cell to the intensity of the entire cell. […] The higher the score, the greater the fluorescence intensity is inside the cell. As described by Amnis (see the world wide web at amnis.com), the inside of the cell is defined by an erosion of a mask that fits the membrane of the cell. The score is invariant to cell size and can accommodate concentrated bright regions and small dim spots. The ratio is mapped to a logarithmic scale to increase the dynamic range to values between {−inf, inf}. The thickness of the membrane (in pixels) determines which pixels are used to define the boundary and the membrane portions of the cell. The user supplies an ‘internal’ mask based on the brightfield image that covers the inside of the cell, the thickness of the membrane in pixels and the fluorescent channel of interest. The cell is divided into 2 regions: External (B) and internal (I). The user supplies the internal region as the mask. The external region is determined by: 1. Dilating the internal mask by the membrane thickness. 2. Combining 1 with the object mask of the channel of interest. 3. External region equals mask 2 and not the internal mask. Next, the mean intensity of the upper quartile of the pixels in each region is determined. The Internalization Score (IS) is then computed as follows:
Cells were washed by centrifugation with PBS 1% BSA at 400 g for 5 minutes. Cells were fixed and permeabilized using 100 μL of Perm/Fix buffer on ice for 20 minutes. Cells were washed by centrifugation with 1 mL of Perm/Wash Cell buffer at 400 g for 5 minutes.
To test whether internalized antibodies accumulate in lysosomes, simultaneous uptake of mAbs and AlexaFluor647-labeled CD107a (a lysosomal marker) were carried out. […] After incubation, 1 mL Perm/Wash Cell buffer was added to wash, before centrifuging (400 g, 5 min). The supernatant was flicked from the plate before the cells were fixed with 200 μL 1% formaldehyde on ice for 20 minutes. The fluorescence of cells was analyzed with the ImageStream multispectral imaging flow cytometer (Amnis corp.) using the Internalization feature. Five thousand events were acquired for each experimental condition and the corresponding images were analyzed using the IDEAS image-analysis software.

[4] = biological target: T3, recombinant human LAMP1 coated on plate (Homo sapiens, UniProt P11279); experiment: Binding competition between anti-LAMP1 mAbs by ELISA
T3 construct: made in house; host or cells: HEK293 (293-F), transient expression, IMAC-purified
T3 sequence (P11279 with tags, fused parts or gaps): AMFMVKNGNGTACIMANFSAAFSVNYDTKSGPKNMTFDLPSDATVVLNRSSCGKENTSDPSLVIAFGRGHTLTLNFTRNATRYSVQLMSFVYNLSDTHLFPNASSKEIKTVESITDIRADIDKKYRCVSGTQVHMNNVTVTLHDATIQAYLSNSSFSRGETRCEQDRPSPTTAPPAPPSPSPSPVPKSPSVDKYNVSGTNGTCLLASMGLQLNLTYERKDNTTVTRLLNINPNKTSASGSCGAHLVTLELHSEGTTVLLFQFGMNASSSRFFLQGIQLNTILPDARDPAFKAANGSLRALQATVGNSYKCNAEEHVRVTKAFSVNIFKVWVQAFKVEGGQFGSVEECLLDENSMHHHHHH
Text: MAb format was chosen so that the two mAbs had different Fc domains (either human or murine). […] The results were reported as a percentage of the value obtained from the mAb alone at the same concentration.
MAb format was chosen so that the two mAbs had different Fc domains (either human or murine). Individual measurements of mAb binding could be performed specifically by their unique specific binding to Fc (with Peroxidase-AffiniPure Goat Anti-Human IgG Ab, Fcγ Fragment Specific (Jackson 109-035-098) or with Peroxidase-AffiniPure Goat Anti-Mouse IgG Ab, Fcγ Fragment Specific (Jackson 115-035-164)). Results were reported as a percentage of the value obtained from the mAb alone at the same concentration, see Table 8.

[5] = mAb alone 0.06 mg/L, Secondary Ab Anti-Human IgG_HRP
[6] = mAb alone 0.06 mg/L, Secondary Ab Anti-Mouse IgG_HRP
[7] = mAb alone 15 mg/L, Secondary Ab Anti-Human IgG_HRP
[8] = mAb alone 15 mg/L, Secondary Ab Anti-Mouse IgG_HRP

Binding call ([1]; Table 17 Experiment no1): No binding
Mean fluorescence ([1]; Table 17 Experiment no1): 28
Binding call [2]: Binding
Mean fluorescence [2]: 694
competition between MAb2 and MAb3 for binding to LAMP1 ([4]; ELISA): partially compete
competition with H4A3 for binding to LAMP1 ([4]; ELISA): partially competes
Percentage of signal compared to mAb control alone [4, 5]: 0%
Percentage of signal compared to mAb control alone [4, 6]: 100%
Percentage of signal compared to mAb control alone [4, 7]: 0%
Percentage of signal compared to mAb control alone [4, 8]: 100%
B1: MAb2: murine monoclonal anti-LAMP1 antibody, VH SEQ ID NO: 8, VL SEQ ID NO: 12 (antibody, V domains shown)
VH: QVQLQQSAAELARPGASVKMSCKASGYTFTSYTMHWVKQRPGQGLEWIGYFNPSSGYPEYNQKFKDKTTLTADKSSNTAFIQLNSLTSEDSAVYYCSRGYYYGSRGYALDFWGQGASVTVSS
VL: NIVLTQSPVSLAVSLGQRATISCRASESVDINGNTFMHWYQQKPGQSPKLVIYAASNIESGVPARFSGSGSSTDFTFTIDPVEADDVATYYCQQNIEDPWTFGGGTKVEIK
modifications: antibod fragment; antibody fragment
Internalization score (IS) 4° C., 4 hr [3]: 0.19
Internalization score (IS) 37° C., 4 hr [3]: 2.24
competition with MAb1 for binding to LAMP1 ([4]; ELISA): No competition was observed; also recorded: does not compete

Binding call ([1]; Table 17 Experiment no1): Binding
Mean fluorescence ([1]; Table 17 Experiment no1): 680
Binding call ([1]; Table 17 Experiment no2): binding
Mean fluorescence ([1]; Table 17 Experiment no2): 211
Binding call [2]: Binding
Mean fluorescence [2]: 990
competition with H4A3 for binding to LAMP1 ([4]; ELISA): does not compete
Percentage of signal compared to mAb control alone [4, 5]: 0%
Percentage of signal compared to mAb control alone [4, 6]: 100%
Percentage of signal compared to mAb control alone [4, 7]: 0%
Percentage of signal compared to mAb control alone [4, 8]: 100%
B2: MAb1: murine monoclonal anti-LAMP1 antibody, VH SEQ ID NO: 1, VL SEQ ID NO: 5 (antibody, V domains shown)
VH: QVQLQQSGAELVKPGASVKMSCKASGYIFTNYNIHWVKKSPGQGLEWIGAIYPGNGDAPYSQKFKDKATLTADKSSSTTYMQLSRLTSEDSAVYYCVRANWDVAFAYWGQGTLVSVSA
VL: DIQMTQSPPSLSASLGGKVTITCKASQDIDRYMAWYQDKPGKGPRLLIHDTSTLQPGIPSRFSGSGSGRDYSFSISNLEPEDIATYYCLQYDNLWTFGGGTKLEIK
modifications: Antibody Fragment; antibody fragment
Internalization score (IS) 4° C., 4 hr [3]: 0.22
Internalization score (IS) 37° C., 4 hr [3]: 2.22

Source: patent publication US9809653B2, “Anti-LAMP1 antibodies and antibody drug conjugates, and uses thereof” (SANOFI, priority 2012, dated 2017)
